Results as given in patent US20240043568A1 (KEYMED BIOSCIENCES, published 2024).

T1: FcγRIIAH131 with His tag (UniProt P12318 34-218)
T1 construct: Bought protein; also called Fcγ RIIAH131 (Sino Biological #10374-H08H1)
T1 sequence (looked up): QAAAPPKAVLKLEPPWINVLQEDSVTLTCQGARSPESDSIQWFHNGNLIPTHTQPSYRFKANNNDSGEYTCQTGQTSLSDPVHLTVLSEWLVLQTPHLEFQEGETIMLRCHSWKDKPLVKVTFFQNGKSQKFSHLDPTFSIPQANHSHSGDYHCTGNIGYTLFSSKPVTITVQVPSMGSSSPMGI

T2: cynomolgus monkey CD3εγ-Fc heterodimer (cynomolgus monkey)
T2 construct: also called monkey CD3 εγ protein
T2 chain 1: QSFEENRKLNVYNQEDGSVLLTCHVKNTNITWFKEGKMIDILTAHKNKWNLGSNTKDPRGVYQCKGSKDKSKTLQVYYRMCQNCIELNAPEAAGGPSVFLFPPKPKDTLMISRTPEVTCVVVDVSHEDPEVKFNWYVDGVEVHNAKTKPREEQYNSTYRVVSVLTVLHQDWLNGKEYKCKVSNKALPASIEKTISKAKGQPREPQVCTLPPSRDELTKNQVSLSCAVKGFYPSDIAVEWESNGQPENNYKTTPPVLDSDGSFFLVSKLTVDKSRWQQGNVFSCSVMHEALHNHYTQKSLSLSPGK
T2 chain 2: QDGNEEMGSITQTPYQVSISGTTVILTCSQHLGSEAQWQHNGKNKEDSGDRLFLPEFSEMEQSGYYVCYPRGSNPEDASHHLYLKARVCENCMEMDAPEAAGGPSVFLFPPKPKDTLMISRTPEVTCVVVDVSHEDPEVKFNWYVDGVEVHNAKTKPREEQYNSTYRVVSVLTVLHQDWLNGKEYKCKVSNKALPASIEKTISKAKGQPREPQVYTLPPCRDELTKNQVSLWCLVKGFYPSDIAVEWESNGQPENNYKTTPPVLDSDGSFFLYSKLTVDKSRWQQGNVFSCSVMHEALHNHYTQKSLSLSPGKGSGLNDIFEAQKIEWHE

B1: GPC3×CD3 κλ002 (bispecific antibody, human IgG4 S228P, kappa, lambda)
light 1: DVVMTQSPLSLPVTPGEPASISCRSSQSIVHSNGNTYLEWYLKKPGQSPQLLIYKVSNRFSGVPDRFSGSGSGTDFTLKISRVEAEDVGVYFCLQVTHVPLTFGQGTKLEIKRTVAAPSVFIFPPSDEQLKSGTASVVCLLNNFYPREAKVQWKVDNALQSGNSQESVTEQDSKDSTYSLSSTLTLSKADYEKHKVYACEVTHQGLSSPVTKSFNRGEC
heavy 1: QVQLVQSGAEVKKPGSSVKVSCKASGYTFADYEIHWVREAPGQGLEWMGAIHPGSGGTAYAQKFQGRVTLTADESSTTAYMELSSLRSEDTAVYYCTRYYSFAYWGQGTLVTVSSASTKGPSVFPLAPCSRSTSESTAALGCLVKDYFPEPVTVSWNSGALTSGVHTFPAVLQSSGLYSLSSVVTVPSSSLGTKTYTCNVDHKPSNTKVDKRVESKYGPPCPPCPAPEFEGGPSVFLFPPKPKDTLMISRTPEVTCVVVDVSQEDPEVQFNWYVDGVEVHNAKTKPREEQFNSTYRVVSVLTVLHQDWLNGKEYKCKVSNKGLASSIEKTISKAKGQPREPQVCTLPPSQEEMTKNQVSLSCAVKGFYPSDIAVEWESNGQPENNYKTTPPVLDSDGSFFLVSKLTVDKSRWQEGNVFSCSVMHEALHNHYTQKSLSLSLGK
light 2: QAVVTQEPSLTVSPGGTVTLTCRSSTGAVTTSNYANWVQEKPGQAPRGLIGGTNKRAPWTPARFSGSLLGGKAALTITGAQAEDEAEYYCVLWYSNLWVFGGGTKLTVLGQPKAAPSVTLFPPSSEELQANKATLVCLISDFYPGAVTVAWKADSSPVKAGVETTTPSKQSNNKYAASSYLSLTPEQWKSHRSYSCQVTHEGSTVEKTVAPTECS
heavy 2: EVQLVESGGGLVQPGGSLRLSCAASGFTFNTYAMNWVRKAPGKGLEWVGRIRSKYNNYATYYADSVKDRFTISRDDSKNSLYLQMNSLKTEDTAVYYCVRHGNFGNSYVSWFAYWGQGTLVTVSSASTKGPSVFPLAPCSRSTSESTAALGCLVKDYFPEPVTVSWNSGALTSGVHTFPAVLQSSGLYSLSSVVTVPSSSLGTKTYTCNVDHKPSNTKVDKRVESKYGPPCPPCPAPEFEGGPSVFLFPPKPKDTLMISRTPEVTCVVVDVSQEDPEVQFNWYVDGVEVHNAKTKPREEQFNSTYRVVSVLTVLHQDWLNGKEYKCKVSNKGLASSIEKTISKAKGQPREPQVYTLPPCQEEMTKNQVSLWCLVKGFYPSDIAVEWESNGQPENNYKTTPPVLDSDGSFFLYSKLTVDKSRWQEGNVFSCSVMHEALHNHYTQKSLSLSLGK
notes: also called GPC3 x CD3 κλ002; GPC3×CD3κλ bispecific antibody
B2: GPC3×CD3 κλ003 (bispecific antibody, human IgG4 S228P, kappa, lambda)
light 1: DVVMTQSPLSLPVTPGEPASISCRSSQSIVHSNGNTYLEWYLKKPGQSPQLLIYKVSNRFSGVPDRFSGSGSGTDFTLKISRVEAEDVGVYFCLQVTHVPLTFGQGTKLEIKRTVAAPSVFIFPPSDKKLKSGTASVVCLLNNFYPREAKVQWKVDNALQSGNSQESVTEQDSKDSTYSLSSTLTLSKADYEKHKVYACEVTHQGLSSPVTKSFNRGEC
heavy 1: QVQLVQSGAEVKKPGSSVKVSCKASGYTFADYEIHWVREAPGQGLEWMGAIHPGSGGTAYAQKFQGRVTLTADESSTTAYMELSSLRSEDTAVYYCTRYYSFAYWGQGTLVTVSSASTKGPSVFPLAPCSRSTSESTAALGCLVEDYFPEPVTVSWNSGALTSGVHTFPAVLQSSGLYSLSSVVTVPSSSLGTKTYTCNVDHKPSNTKVDERVESKYGPPCPPCPAPEFEGGPSVFLFPPKPKDTLMISRTPEVTCVVVDVSQEDPEVQFNWYVDGVEVHNAKTKPREEQFNSTYRVVSVLTVLHQDWLNGKEYKCKVSNKGLASSIEKTISKAKGQPREPQVCTLPPSQEEMTKNQVSLSCAVKGFYPSDIAVEWESNGQPENNYKTTPPVLDSDGSFFLVSKLTVDKSRWQEGNVFSCSVMHEALHNHYTQKSLSLSLGK
light 2: QAVVTQEPSLTVSPGGTVTLTCRSSTGAVTTSNYANWVQEKPGQAPRGLIGGTNKRAPWTPARFSGSLLGGKAALTITGAQAEDEAEYYCVLWYSNLWVFGGGTKLTVLGQPKAAPSVTLFPPSSEELQANKATLVCLISDFYPGAVTVAWKADSSPVKAGVETTTPSKQSNNKYAASSYLSLTPEQWKSHRSYSCQVTHEGSTVEKTVAPTECS
heavy 2: EVQLVESGGGLVQPGGSLRLSCAASGFTFNTYAMNWVRKAPGKGLEWVGRIRSKYNNYATYYADSVKDRFTISRDDSKNSLYLQMNSLKTEDTAVYYCVRHGNFGNSYVSWFAYWGQGTLVTVSSASTKGPSVFPLAPCSRSTSESTAALGCLVKDYFPEPVTVSWNSGALTSGVHTFPAVLQSSGLYSLSSVVTVPSSSLGTKTYTCNVDHKPSNTKVDKRVESKYGPPCPPCPAPEFEGGPSVFLFPPKPKDTLMISRTPEVTCVVVDVSQEDPEVQFNWYVDGVEVHNAKTKPREEQFNSTYRVVSVLTVLHQDWLNGKEYKCKVSNKGLASSIEKTISKAKGQPREPQVYTLPPCQEEMTKNQVSLWCLVKGFYPSDIAVEWESNGQPENNYKTTPPVLDSDGSFFLYSKLTVDKSRWQEGNVFSCSVMHEALHNHYTQKSLSLSLGK
notes: also called GPC3 x CD3 κλ003; GPC3×CD3κλ bispecific antibody

Columns and labels:
[1] = target: recombinant cynomolgus monkey GPC3 full-length protein (cynomolgus monkey, UniProt A0A2K5VK50 24-558); assay: SPR (Biacore T200), antibody on Protein A chip, GPC3 as analyte
Experimental: (§1) The antibodies with a concentration of 1 μg/ml were captured on the Protein A chip (GE healthcare). Different concentrations of recombinant human or cynomolgus monkey GPC3 protein (5 μg/ml as the initial concentration, 2-fold gradient, a total of 6 concentration points) as the analyte was flowed through the chip at a flow rate of 30 μL/min, with an association time of 120 seconds, and a dissociation time of 400 seconds. The changes in the SPR signal during the association and dissociation of the protein were recorded. The kinetic constants were obtained by fitting with 1:1 binding model using Biacore T200 evaluation software.

[2] = target: T3, recombinant human GPC3 protein (human, UniProt P51654 25-563); assay: as above
T3 construct: also called human GPC3 full-length protein; recombinant GPC3 protein
Experimental: as §1

[3] = target: T1, FcγRIIAH131 with His tag; assay: SPR, His-tagged FcγRIIAH131 captured by anti-His antibody on the chip, antibody as analyte [row FcγRIIAH131, column GPC3×CD3 κλ002]
Experimental: (§2) 50 μg/mL His-Tag antibodies were conjugated to a CMS chip through amino groups, and recombinant proteins FcγRI, FcγRIIAH131, and FcγRIIIAV158 with His tags (Sino Biological, #10256-H08H/10374-H08H1/10389-H08H1) were respectively captured for a capture time of 40 s at a flow rate of 10 μL/min. After the baseline was stable, the gradient-diluted antibody (the initial concentration of 37.5 μg/mL, 2-fold dilution) flowed through the chip at a flow rate of 30 μL/min, with a binding time of 120 s and a dissociation time of 200 s. The affinity constants were obtained by fitting them with Biacore evaluation software. It can be seen from FIG. 22 that the GPC3×CD3κλ bispecific antibody has no binding to FcγRI, FcγRIIAH131, and FcγRIIIAV158; The wild-type IgG4 control antibody can bind to FcγRI with high affinity and weakly bind to Fcγ RIIAH131.

[4] = target: T4, human CD3 on T cells (human, UniProt P07766 23-207); assay: flow cytometry, human peripheral blood CD8+ T cells
T4 construct: whole, on cells; The target is the native CD3 complex on cells; The recombinant antigen used elsewhere is the εγ heterodimer; also called CD3 on Jurkat cells; CD3 on human peripheral blood CD4+ and CD8+ T cells
Experimental: Fresh human peripheral blood was taken and PBMCs were isolated by Ficoll-Paque Plus (GE, 17-1440-03). The PBMCs were adjusted to 5×10⁵ cells/mL with 4% calf serum (Hyclone, SH30626.06), and added to a 96-well U-plate at 100 μL/well. The centrifuged supernatant was discarded. 100 μL of gradient diluted antibody (initial concentration: 1800 nM, 3-fold dilution, 11 gradients) was added to each well and incubated at 4° C. for 60 minutes. The secondary antibody Alexa Fluro647 labeled goat anti-human IgG Fc (1:300 dilution) was added at 50 μL/well and incubated on an ice bath for 20 min. After washing once, PI solution was added at 50 μL/well. Incubation was performed for 5 min before detection by flow cytometry (BD Celesta). The GPC3×CD3κλ bispecific antibody can bind to the human peripheral blood T cell with low affinity.

[5] = target: T2, cynomolgus monkey CD3εγ-Fc heterodimer; assay: SPR (Biacore T200), CD3εγ amine-coupled to the chip, antibody as analyte
Experimental: Human or monkey CD3 εγ recombinant antigen at 10 μg/mL was bound to a CMS chip (GE healthcare) by amino coupling, and the antigen binding capacity was controlled to approximately 200 RU. After the baseline was stable, gradient diluted antibodies (initially with 10 μg/mL, 2-fold dilution, 7 gradients) were flowed through the chip at a flow rate of 30 μL/min, with an association time of 350 seconds and a dissociation time of 600 seconds. The kinetic constants were obtained by fitting with 1:1 binding model using Biacore T200 evaluation software.

[6] = target: T5, FcγRI with His tag (UniProt P12314 16-288); assay: SPR, His-tagged FcγRI captured by anti-His antibody on the chip, antibody as analyte [row FcγRI, column GPC3×CD3 κλ002]
T5 construct: Bought protein; also called FcγRI (Sino Biological #10256-H08H)
T5 sequence (P12314 16-288 limits assumed): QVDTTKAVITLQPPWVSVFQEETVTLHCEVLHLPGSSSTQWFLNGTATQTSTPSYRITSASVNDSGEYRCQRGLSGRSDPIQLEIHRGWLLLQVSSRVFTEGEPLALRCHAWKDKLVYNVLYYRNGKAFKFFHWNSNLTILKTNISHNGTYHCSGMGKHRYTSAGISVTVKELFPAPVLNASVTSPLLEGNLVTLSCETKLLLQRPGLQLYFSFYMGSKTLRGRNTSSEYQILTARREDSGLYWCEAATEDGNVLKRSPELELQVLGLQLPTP
Experimental: as §2

[7] = target: T6, FcγRIIIAV158 with His tag (UniProt P08637 17-208); assay: SPR, His-tagged FcγRIIIAV158 captured by anti-His antibody on the chip, antibody as analyte [row FcγRIIIAV158, column GPC3×CD3 κλ003]
T6 construct: Bought protein; also called FcγRIIIAV158 (Sino Biological #10389-H08H1)
T6 sequence (P08637 17-208 F176V limits assumed): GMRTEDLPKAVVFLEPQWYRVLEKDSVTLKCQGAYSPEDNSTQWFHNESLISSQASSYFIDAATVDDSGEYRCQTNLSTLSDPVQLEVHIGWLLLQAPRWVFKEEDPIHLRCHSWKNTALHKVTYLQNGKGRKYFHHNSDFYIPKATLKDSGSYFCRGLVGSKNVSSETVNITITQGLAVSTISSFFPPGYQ
Experimental: as §2

Row | Binder | Kd [1] | Kd [2] | binding result [3] | EC50 [4] | Kd [5] | binding result [6] | binding result [7]
1 | B1 | 1.6 nM | 1.35 nM | no binding | 65 nM | 23.9 nM | no binding | 
2 | B2 | 1.91 nM | 2.11 nM |  | 69 nM | 17.8 nM |  | no binding
